B1: 348-H4-357-L4 (antibody, human IgG1, kappa, V domains shown)
VH: QVQLVQSGAEVKKPGASVKVSCKASGYTFTHYSMHWVRQAPGQGLEWMGWINTYTGEPTYADDFKGRFVFSLDTSVSTAYLQLSSLKAEDTAVYYCATYYRYERDFDYWGQGTLVTVSS
VL: DIVMTQSPLSLPVTPGEPASISCRSSQSIVHSSGITYLEWYLQKPGQSPQLLIYKVSNRFSGVPDRFSGSGSGTDFTLKISRVEAEDVGVYYCFQGSHVPYTFGQGTKVEIKR
notes: human IgG1 / kappa; also called antibody of humanized heavy chain of SH348-1 and humanized light chain of SH357-1; swapped antibody
B2: 348-H4-357-L5 (antibody, human IgG1, kappa, V domains shown)
VH: QVQLVQSGAEVKKPGASVKVSCKASGYTFTHYSMHWVRQAPGQGLEWMGWINTYTGEPTYADDFKGRFVFSLDTSVSTAYLQLSSLKAEDTAVYYCATYYRYERDFDYWGQGTLVTVSS
VL: DVLMTQSPLSLPVTPGEPASISCRSSQSIVHSSGITYLEWYLQKPGQSPKLLIYKVSNRFSGVPDRFSGSGSGTDFTLKISRVEAEDVGVYYCFQGSHVPYTFGQGTKVEIKR
notes: human IgG1 / kappa
B3: 348-H5-357-L5 (antibody, human IgG1, kappa, V domains shown)
VH: QVQLVQSGAEVKKPGASVKVSCKASGYTFTHYSMHWVKQAPGQGLKWMGWINTYTGEPTYADDFKGRFAFSLETSVSTAYLQLSSLKAEDTAVYFCATYYRYERDFDYWGQGTLVTVSS
VL: DVLMTQSPLSLPVTPGEPASISCRSSQSIVHSSGITYLEWYLQKPGQSPKLLIYKVSNRFSGVPDRFSGSGSGTDFTLKISRVEAEDVGVYYCFQGSHVPYTFGQGTKVEIKR
notes: human IgG1 / kappa
B4: 348-H5-357-L4 (antibody, human IgG1, kappa, V domains shown)
VH: QVQLVQSGAEVKKPGASVKVSCKASGYTFTHYSMHWVKQAPGQGLKWMGWINTYTGEPTYADDFKGRFAFSLETSVSTAYLQLSSLKAEDTAVYFCATYYRYERDFDYWGQGTLVTVSS
VL: DIVMTQSPLSLPVTPGEPASISCRSSQSIVHSSGITYLEWYLQKPGQSPQLLIYKVSNRFSGVPDRFSGSGSGTDFTLKISRVEAEDVGVYYCFQGSHVPYTFGQGTKVEIKR
notes: human IgG1 / kappa

The target in the experiment is T1, His-Fibronectin type III domain (426-540) (human, UniProt P29317 426-540).
T1 construct: also called His-Fibrinctin type III domain (426-540); Fibronectin type III domain of EPHA2; not shown: histidine tag added to the amino terminus
T1 sequence (P29317 426-540): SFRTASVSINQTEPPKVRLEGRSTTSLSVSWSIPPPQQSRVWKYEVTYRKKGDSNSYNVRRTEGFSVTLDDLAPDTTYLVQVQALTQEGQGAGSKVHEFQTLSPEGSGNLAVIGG
Briefly: SPR (Biacore T100), antibody captured on anti-human IgG(Fc), antigen as analyte, 1:1 model.
Broadly, the Kd is the concentration at which binding is half-saturated. As for B1, the affinity, expressed as Kd, was 0.37 nM. In other words, the sub-nanomolar range.

Molecule B2 had a Kd of 0.37 nM.

With B3, the Kd was 0.3 nM.

With B4, the Kd was 0.32 nM.

(Values after WO2012008397A1 (dated 2012).)
